From patent publication US12649778
Residue numbers refer to the chain shown, from its start. Names may count otherwise. “And” between values parts separate entries of the source, which are not always exact repeats. Equal values may be shown once. Read-outs that look alike come from different tables or passages of the source.

B1: chimeric Fab antibody of 65D3 (wild type) (Fab, V domains shown)
VH: QSLEESGGRLVTPGGSLTLTCTVSGFSLSTHDISWVRQAPGKGLEWIGVIARRGSTYYASWAKGRFTISKTSTTVDLKITSPTIEDTATYFCAREEFDFWGQGTLVTVSS
VL: AVLTQTASPVSAAVGGTVTISCQSSQSVYNNKELSWFQQKPGQPPKLLISYASTLASGVPSRFKGSGSGTQFTLTISDLECDDAATYYCLGGYASTIDMWAFGGGTEVVVK
B2: 65D3 mutant IgG variant 3 (S55W-VH + VL) (antibody)
heavy: QSLEESGGRLVTPGGSLTLTCTVSGFSLSTHDISWVRQAPGKGLEWIGVIARRGWTYYASWAKGRFTISKTSTTVDLKITSPTIEDTATYFCAREEFDFWGQGTLVTVSSGQPKAPSVFPLAPCCGDTPSSTVTLGCLVKGYLPEPVTVTWNSGTLTNGVRTFPSVRQSSGLYSLSSVVSVTSSSQPVTCNVAHPATNTKVDKTVAPSTCSKPTCPPPELLGGPSVFIFPPKPKDTLMISRTPEVTCVVVDVSQDDPEVQFTWYINNEQVRTARPPLREQQFNSTIRVVSTLPIAHQDWLRGKEFKCKVHNKALPAPIEKTISKARGQPLEPKVYTMGPPREELSSRSVSLTCMINGFYPSDISVEWEKNGKAEDNYKTTPAVLDSDGSYFLYSKLSVPTSEWQRGDVFTCSVMHEALHNHYTQKSISRSPGK
VL: B1 VL
B3: 65D3 mutant IgG variant 1 (S55W&G64K-VH + S57T-VL) (antibody)
heavy: B2 heavy with G64K
light: AVLTQTASPVSAAVGGTVTISCQSSQSVYNNKELSWFQQKPGQPPKLLISYASTLATGVPSRFKGSGSGTQFTLTISDLECDDAATYYCLGGYASTIDMWAFGGGTEVVVKGDPVAPTVLIFPPAADQVATGTVTIVCVANKYFPDVTVTWEVDGTTQTTGIENSKTPQNSADCTYNLSSTLTLTSTQYNSHKEYTCKVTQGTTSVVQSFNRGDC

Key:
[1] = molecular target: Peptide 1593 (…) (Mycobacterium tuberculosis)
[2] = molecular target: Peptide 1593 (…) (Mycobacterium tuberculosis); assay: ELISA, Fab supernatant on coated peptide
[3] = molecular target: Peptide 1593 (…) (Mycobacterium tuberculosis); assay: SPR (Biacore), IgG amine-coupled, peptide as analyte
[4] = molecular target: Peptide 1593 (…) (Mycobacterium tuberculosis); remark: listed apart in the source

Binder | OD450 nm (single well) [1] | OD450 at 0.00390625 ug/ml coated antigen [2] | OD450 at 0.0078125 ug/ml coated antigen [2] | OD450 at 0.00953125 ug/ml coated antigen (so in the source) [2] | OD450 at 0.015625 ug/ml coated antigen [2] | OD450 at 0.03125 ug/ml coated antigen [2] | OD450 at 0.0625 ug/ml coated antigen [2] | OD450 at 0.125 ug/ml coated antigen [2] | OD450 at 0.25 ug/ml coated antigen [2] | OD450 at 0.5 ug/ml coated antigen [2] | OD450 at 1 ug/ml coated antigen [2] | Kd [3] | koff [3] | kon [3] | Kd [4]
B1 | 0.879 and 0.794 | 0.133 OD450 and 0.147 OD450 | 0.319 OD450 and 0.341 OD450 | 0.084 OD450 | 0.73 OD450 and 0.789 OD450 | 1.21 OD450 and 1.37 OD450 | 1.71 OD450 and 1.8 OD450 | 1.94 OD450 and 2.04 OD450 | 2.18 OD450 and 2.23 OD450 | 2.27 OD450 and 2.25 OD450 | 2.3 OD450 and 2.31 OD450 |  |  |  | 
B2 |  |  |  |  |  |  |  |  |  |  |  | 2.03 nM | 0.00026 s⁻¹ | 128000 M⁻¹ s⁻¹ | 
B3 |  |  |  |  |  |  |  |  |  |  |  | 2.6 nM | 0.00027 s⁻¹ | 104000 M⁻¹ s⁻¹ | 2.7 nM
